Assays:
[1] = biological target: Homer1 EVH1 domain (Homo sapiens, UniProt Q86YM7); settings: read-out: K D ^Homer1; pH 7.6; SD
[2] = biological target: ddEVH1 (D. discoideum EVH1 domain of ddVASP) (Dictyostelium discoideum, UniProt Q5TJ65)
[3] = system: ENAH EVH1 domain tetramers; assay: Peptide SPOT array, ENAH EVH1 domain tetramers; type: binding, human; settings: SPOT intensities, tetrameric EVH1, 0.5 μM monomer
Protocol: Protein expression was carried out as above.
ABI3 substitution and overlapping motif SPOT arrays were synthesized at the MIT Biopolymer Facility using an Intavis SPOT synthesis peptide arrayer system. At the N‐terminus, the 20‐mer peptides were capped with a Gly‐Ser linker and acetylated. The peptides were linked to the cellulose membrane by a C‐terminal PEG spacer. For the overlapping motif array, because many of the peptide sequences contain additional Ena/VASP and Homer motifs, each peptide was also synthesized as a control where the internal proline tract was mutated to poly‐glycine. The protocol for blocking and probing the membrane was adapted from Frank and Dübel ([2006]). […] The following day, the array was washed in T‐TBS (TBS + 0.05% Tween‐20) and then incubated with the protein sample in MBS (+1 μM DTT) for 3 h at room temperature. All array experiments were carried out with streptavidin‐Cy3 (Thermo Fisher) pre‐tetramerized EVH1 at a final monomer concentration of 0.5 μM. The membrane was washed three times in T‐TBS prior to scanning on a GE Amersham Imager 680. SPOT intensities were calculated using the ImageJ analysis software (Abràmoff et al., [2004]). No background correction was performed. For the overlapping peptides, the final intensity was calculated as the difference between the intensity of the wild‐type and motif knockout control. […]

Sequence of ddEVH1 (D. discoideum EVH1 domain of ddVASP) (Q5TJ65 with tags, fused parts or gaps): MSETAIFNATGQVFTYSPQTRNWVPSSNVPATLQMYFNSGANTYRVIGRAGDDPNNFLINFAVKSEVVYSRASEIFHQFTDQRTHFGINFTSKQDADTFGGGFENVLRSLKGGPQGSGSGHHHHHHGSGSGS
Sequence of Homer1 EVH1 domain (Q86YM7 with tags, fused parts or gaps): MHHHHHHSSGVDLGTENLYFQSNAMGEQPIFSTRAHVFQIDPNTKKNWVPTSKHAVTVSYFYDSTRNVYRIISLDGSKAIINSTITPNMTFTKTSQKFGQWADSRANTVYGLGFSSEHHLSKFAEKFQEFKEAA

## DIESDFPPPPEDFPAADELP [FAT1]
[1]
  Kd: 98 ± 7 µM
[2]
  ddEVH1 binding, result in words: bound poorly
[3]
  Binding to ENAH relative to Homer1 EVH1 in the SPOT array assay: two‐ to three‐fold better
